How the values were obtained:
Type in all cases: in vivo
[1] = system: Arabidopsis thaliana T1 plants; assay: oxyfluorfen tolerance of transgenic Arabidopsis thaliana T1 plants (spray, grade of pesticide damage); details: 7 DAT, number of plants of 24 per genotype, grades
Outline: (§1)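 T1 Arabidopsis (PPO constructs; glufosinate-selected) + vector and WT controls, n=24/genotype, d18 post-sowing. Spray 1×/higher field rate or water: saflufenacil 25/100, sulfentrazone 450/900, flumioxazin 60/240, oxyfluorfen 180/720 g ai/ha. Score 7 DAT, grades 0–3 by injured leaf area.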

[2] = system: Arabidopsis thaliana T1 plants; assay: saflufenacil tolerance of transgenic Arabidopsis thaliana T1 plants (spray, grade of pesticide damage); details: 7 DAT, number of plants of 24 per genotype, grades
Outline: as §1

[3] = system: Arabidopsis thaliana T1 plants; assay: flumioxazin tolerance of transgenic Arabidopsis thaliana T1 plants (spray, grade of pesticide damage); details: 7 DAT, number of plants of 24 per genotype, grades
Outline: as §1

[4] = system: Arabidopsis thaliana T1 plants; assay: sulfentrazone tolerance of transgenic Arabidopsis thaliana T1 plants (spray, grade of pesticide damage); details: 7 DAT, number of plants of 24 per genotype, grades
Outline: as §1

[5] = system: transgenic soybean plants; assay: saflufenacil tolerance of transgenic soybean plants (spray, grade of pesticide damage); design: key to damage levels rated at grade: grade 0 means that the growth status of plants is essentially consistent with those sprayed with the blank solvent (water); grade 1 means that the average of the damage levels of plants is less than 10%; grade 2 means that the average of the damage levels of plants is greater than 100%; grade 3 means that the average of the damage levels of plants is 100%; details: for The grade of pesticide damage/plant: grade 0 / The grade of pesticide damage/plant: grade 1 / The grade of pesticide damage/plant: grade 2 / The grade of pesticide damage/plant: grade 3: 7 DAT, number of plants of 16 per genotype, grades
[6] = system: transgenic soybean plants; assay: oxyfluorfen tolerance of transgenic soybean plants (spray, grade of pesticide damage); details: for The grade of pesticide damage/plant: grade 0 / The grade of pesticide damage/plant: grade 1 / The grade of pesticide damage/plant: grade 2 / The grade of pesticide damage/plant: grade 3: 7 DAT, number of plants of 16 per genotype, grades; for tolerance to oxyfluorfen: soybean
[7] = system: transgenic soybean plants; assay: flumioxazin tolerance of transgenic soybean plants (spray, grade of pesticide damage); details: for The grade of pesticide damage/plant: grade 0 / The grade of pesticide damage/plant: grade 1 / The grade of pesticide damage/plant: grade 2 / The grade of pesticide damage/plant: grade 3: 7 DAT, number of plants of 16 per genotype, grades

B1: PPO6A: nucleotide sequence encoding microbial protoporphyrinogen oxidase PPO6 (SEQ ID NO:6), Arabidopsis thaliana/soybean common codon usage bias (nucleic acid)
DNA: ATGTCTTCTCCTAATGGGAAGTATTTGATGCTTTACAGTACCACCGACGGTCACACAAAAACCATTATGGATACAATGGCTAAACATATAATGGAAGAAGCAAAAGTACAATGTGATGTTGTGGACATGAGAGATGGAGACAAATACGAGTTAGCTGCTTATGAGAAGGTGATGCTAGGAGCTTCTATTAGATATGGATTCTTCAGCCGCACTCTTCATACATATACCACTCATCATGTTGATGAACTTAACTCAATGCCTTCCGCTTTCTTTGGAGTCAATCTCACTGCTCGTAAAACTTCAAAGAACACTGCAATGACTAATGCATACACAAGAAAGTTTCTGGATCAATCCATGTGGGTTCCTCAATTATCTGGCGTTTTTGCTGGTGCTTTGTGGTATCCTAGGTACAATTTCTTTGACAGGGTTATGATTCAGTTCATCATGAAGGTAACTGGTGGTGAAACAAACACAACGAAAGAGATAGTTTACACTGATTGGGATGCTGTTCACAAATTTGCAACAGATTTTGTGCAGCTACCAGCCACGGCGATACCCCGGAGCAAGCCGGCGACGTCGGTCCCACCAGCTAGTGTGGCCAACTATGATAATGGGGCACGAGTAGCGCTTGTGGTTGTGGGAATCTCAGCAGCCATCATCTTTGGCCGTCGATTGATTCTCGCAAAGAGATTCTGA
modifications: The nucleotide sequence of PPO6A
- The grade of pesticide damage/plant: grade 0 ([1]; oxyfluorfen 180 g ai/ha (1×)): 24 plant
- The grade of pesticide damage/plant: grade 1 ([1]; oxyfluorfen 180 g ai/ha (1×)): 0 plant
- The grade of pesticide damage/plant: grade 2 ([1]; oxyfluorfen 180 g ai/ha (1×)): 0 plant
- The grade of pesticide damage/plant: grade 3 ([1]; oxyfluorfen 180 g ai/ha (1×)): 0 plant
- The grade of pesticide damage/plant: grade 0 ([1]; oxyfluorfen 720 g ai/ha (4×)): 20 plant
- The grade of pesticide damage/plant: grade 1 ([1]; oxyfluorfen 720 g ai/ha (4×)): 4 plant
- The grade of pesticide damage/plant: grade 2 ([1]; oxyfluorfen 720 g ai/ha (4×)): 0 plant
- The grade of pesticide damage/plant: grade 3 ([1]; oxyfluorfen 720 g ai/ha (4×)): 0 plant
- The grade of pesticide damage/plant: grade 0 ([2]; saflufenacil 25 g ai/ha (1×)): 24 plant
- The grade of pesticide damage/plant: grade 1 ([2]; saflufenacil 25 g ai/ha (1×)): 0 plant
- The grade of pesticide damage/plant: grade 2 ([2]; saflufenacil 25 g ai/ha (1×)): 0 plant
- The grade of pesticide damage/plant: grade 3 ([2]; saflufenacil 25 g ai/ha (1×)): 0 plant
- The grade of pesticide damage/plant: grade 0 ([2]; saflufenacil 100 g ai/ha (4×)): 2 plant
- The grade of pesticide damage/plant: grade 1 ([2]; saflufenacil 100 g ai/ha (4×)): 22 plant
- The grade of pesticide damage/plant: grade 2 ([2]; saflufenacil 100 g ai/ha (4×)): 0 plant
- The grade of pesticide damage/plant: grade 3 ([2]; saflufenacil 100 g ai/ha (4×)): 0 plant
- The grade of pesticide damage/plant: grade 0 ([3]; flumioxazin 60 g ai/ha (1×)): 24 plant
- The grade of pesticide damage/plant: grade 1 ([3]; flumioxazin 60 g ai/ha (1×)): 0 plant
- The grade of pesticide damage/plant: grade 2 ([3]; flumioxazin 60 g ai/ha (1×)): 0 plant
- The grade of pesticide damage/plant: grade 3 ([3]; flumioxazin 60 g ai/ha (1×)): 0 plant
- The grade of pesticide damage/plant: grade 0 ([3]; flumioxazin 240 g ai/ha (4×)): 22 plant
- The grade of pesticide damage/plant: grade 1 ([3]; flumioxazin 240 g ai/ha (4×)): 2 plant
- The grade of pesticide damage/plant: grade 2 ([3]; flumioxazin 240 g ai/ha (4×)): 0 plant
- The grade of pesticide damage/plant: grade 3 ([3]; flumioxazin 240 g ai/ha (4×)): 0 plant
- The grade of pesticide: grade 0 ([4]; sulfentrazone 450 g ai/ha (1×)): 24
- The grade of pesticide: grade 1 ([4]; sulfentrazone 450 g ai/ha (1×)): 0
- The grade of pesticide: grade 2 ([4]; sulfentrazone 450 g ai/ha (1×)): 0
- The grade of pesticide: grade 3 ([4]; sulfentrazone 450 g ai/ha (1×)): 0
- The grade of pesticide: grade 0 ([4]; sulfentrazone 900 g ai/ha (2×)): 20
- The grade of pesticide: grade 1 ([4]; sulfentrazone 900 g ai/ha (2×)): 4
- The grade of pesticide: grade 2 ([4]; sulfentrazone 900 g ai/ha (2×)): 0
- The grade of pesticide: grade 3 ([4]; sulfentrazone 900 g ai/ha (2×)): 0
- The grade of pesticide damage/plant: grade 0 ([5]; saflufenacil 50 g ai/ha (2×)): 16 plant
- The grade of pesticide damage/plant: grade 1 ([5]; saflufenacil 50 g ai/ha (2×)): 0 plant
- The grade of pesticide damage/plant: grade 2 ([5]; saflufenacil 50 g ai/ha (2×)): 0 plant
- The grade of pesticide damage/plant: grade 3 ([5]; saflufenacil 50 g ai/ha (2×)): 0 plant
- The grade of pesticide damage/plant: grade 0 ([5]; saflufenacil 100 g ai/ha (4×)): 16 plant
- The grade of pesticide damage/plant: grade 1 ([5]; saflufenacil 100 g ai/ha (4×)): 0 plant
- The grade of pesticide damage/plant: grade 2 ([5]; saflufenacil 100 g ai/ha (4×)): 0 plant
- The grade of pesticide damage/plant: grade 3 ([5]; saflufenacil 100 g ai/ha (4×)): 0 plant
- tolerance to saflufenacil ([5]; soybean, saflufenacil at four-fold field concentration (100 g ai/ha)): high-resistant tolerance
- damage levels rated at grade ([5]; soybean, saflufenacil at two-fold field concentration (50 g ai/ha)): 0
- tolerance to saflufenacil ([5]; soybean, saflufenacil, compared with the control vector and CK): different extents of tolerance
- The grade of pesticide damage/plant: grade 0 ([6]; oxyfluorfen 360 g ai/ha (2×)): 16 plant
- The grade of pesticide damage/plant: grade 1 ([6]; oxyfluorfen 360 g ai/ha (2×)): 0 plant
- The grade of pesticide damage/plant: grade 2 ([6]; oxyfluorfen 360 g ai/ha (2×)): 0 plant
- The grade of pesticide damage/plant: grade 3 ([6]; oxyfluorfen 360 g ai/ha (2×)): 0 plant
- The grade of pesticide damage/plant: grade 0 ([6]; oxyfluorfen 720 g ai/ha (4×)): 16 plant
- The grade of pesticide damage/plant: grade 1 ([6]; oxyfluorfen 720 g ai/ha (4×)): 0 plant
- The grade of pesticide damage/plant: grade 2 ([6]; oxyfluorfen 720 g ai/ha (4×)): 0 plant
- The grade of pesticide damage/plant: grade 3 ([6]; oxyfluorfen 720 g ai/ha (4×)): 0 plant
- tolerance to oxyfluorfen ([6]; oxyfluorfen at four-fold field concentration (720 g ai/ha)): high-resistant tolerance
- tolerance to oxyfluorfen ([6]; oxyfluorfen at two-fold field concentration (360 g ai/ha)): high-resistant tolerance
- The grade of pesticide damage/plant: grade 0 ([7]; flumioxazin 120 g ai/ha (2×)): 16 plant
- The grade of pesticide damage/plant: grade 1 ([7]; flumioxazin 120 g ai/ha (2×)): 0 plant
- The grade of pesticide damage/plant: grade 2 ([7]; flumioxazin 120 g ai/ha (2×)): 0 plant
- The grade of pesticide damage/plant: grade 3 ([7]; flumioxazin 120 g ai/ha (2×)): 0 plant
- The grade of pesticide damage/plant: grade 0 ([7]; flumioxazin 240 g ai/ha (4×)): 16 plant
- The grade of pesticide damage/plant: grade 1 ([7]; flumioxazin 240 g ai/ha (4×)): 0 plant
- The grade of pesticide damage/plant: grade 2 ([7]; flumioxazin 240 g ai/ha (4×)): 0 plant
- The grade of pesticide damage/plant: grade 3 ([7]; flumioxazin 240 g ai/ha (4×)): 0 plant
- tolerance to flumioxazin ([7]; soybean, flumioxazin at different concentrations (120 and 240 g ai/ha)): high-resistant tolerance
